± gives the uncertainty stated by the source.
Assay: protein stability index of a GFP-peptide fusion (yeast GPS) (PSI 1-4); higher = more stable; sorted into four equal gates, so the index is relative within each strain
How it was run: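 Mid-log yeast cultures in leucine-free medium, carrying a pooled plasmid library, were sorted into four equal gates by their GFP/Cherry fluorescence ratio. Each plasmid expressed Cherry along with GFP fused upstream of a tiled 17-residue yeast protein peptide. Plasmids recovered from each gate were PCR-amplified and Illumina-sequenced, with reads assigned to strains by barcodes. The protein stability index was obtained by summing each gate's read frequency weighted by its gate number.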

Row | Sequence | protein stability index (doa10∆) | protein stability index (pdr5∆) | protein stability index (san1∆) | protein stability index (ubr1∆)
1 | KAEFSKEMTLQKNMNDL [YIL149C/MLP2] | 3.21 ± 0.053 | 3.3 ± 0.086 | 3.23 ± 0.09 | 3.07 ± 0.067
2 | LGITGLATDVTTLNEMF [PUP3] | 2.2 ± 0.16 | 2.39 ± 0.11 | 2.24 ± 0.16 | 2.27 ± 0.11
3 | KKRLMDIDDELNELETL [SMC2] | 3.05 ± 0.058 | 3.17 ± 0.067 | 3 ± 0.034 | 3.37 ± 0.035
4 | PDRQSMDSRVAHGNILI [SRB5] | 3.14 ± 0.09 | 3.12 ± 0.064 | 3.02 ± 0.058 | 3.14 ± 0.05
5 | QMAVHIATDGGRICRPL [RET1] | 2.66 ± 0.094 | 3.04 ± 0.085 | 2.78 ± 0.1 | 2.8 ± 0.054
6 | IIKRSNGQSLSPVRSDS [YMR153W/NUP53] | 2.64 ± 0.093 | 2.87 ± 0.058 | 2.76 ± 0.064 | 2.81 ± 0.037
7 | FEEDSDLALPPPPPPPP [PRP8] | 3.08 ± 0.063 | 3.25 ± 0.066 | 3.27 ± 0.072 | 3.23 ± 0.062
8 | GTLDKNSQTVSGTPITQ [SNF2] | 2.83 ± 0.055 | 2.71 ± 0.055 | 2.69 ± 0.052 | 2.65 ± 0.044
9 | SSYDLLFNESFIMASVG [SRP72] | 3.18 ± 0.12 | 2.88 ± 0.15 | 2.76 ± 0.1 | 3.16 ± 0.059
10 | DIFSNLSSDDLLGKESF [YCS4] | 2.87 ± 0.05 | 2.24 ± 0.05 | 2.95 ± 0.044 | 2.86 ± 0.034
11 | KKLVWPLHLIFAQPVAD [SSN2] | 1.88 ± 0.075 | 1.39 ± 0.073 | 1.26 ± 0.11 | 1.17 ± 0.062
12 | AVINIRDDGKRELLVEG [RPO31] | 3.56 ± 0.2 | 3.06 ± 0.22 |  | 3.14 ± 0.1
13 | DTRSTQGPIVADKNCAK [PUP1] | 3.13 ± 0.11 | 3.59 ± 0.12 | 3.15 ± 0.1 | 3.04 ± 0.086
14 | EQENMRKVREQEELKKR [MED2] |  | 3.13 ± 0.19 |  | 3.56 ± 0.11
15 | IYINKSVPTNSADAPNP [RET1] | 3.19 ± 0.08 | 3.2 ± 0.061 | 3.31 ± 0.049 | 3.29 ± 0.052
16 | DGGLFTLFVRDQDSAVV [QCR2] | 3.04 ± 0.11 | 3.16 ± 0.078 | 3.25 ± 0.059 | 3.32 ± 0.057
17 | DLMDDMSDISDLDDLGF [RPN3] | 1.82 ± 0.098 | 1.89 ± 0.081 | 1.57 ± 0.14 | 1.74 ± 0.075
18 | SLSYMAFPNASKKNRPT [RRP40] | 2.2 ± 0.22 | 2.89 ± 0.15 |  | 2.9 ± 0.14
19 | SVDLEKLAFGLTKLNED [TAF14] | 3.54 ± 0.19 | 3.45 ± 0.17 | 3.6 ± 0.092 | 3.61 ± 0.12
20 | LRLFINEEGDWSCIVVE [ITC1] | 2.74 ± 0.088 | 2.62 ± 0.083 | 3.07 ± 0.083 | 3.19 ± 0.1
21 | YQSSVQEPFLNSSNYAE [PRP8] | 2.99 ± 0.055 | 2.96 ± 0.052 | 2.78 ± 0.053 | 2.9 ± 0.043
22 | DDDKKPDDDKIVPLTEG [RPT1] | 3 ± 0.13 | 3.29 ± 0.11 | 3.16 ± 0.12 | 3.32 ± 0.064
23 | VTYSDVGGCKDQIEKLR [RPT1] | 3.51 ± 0.16 | 3.67 ± 0.2 | 2.92 ± 0.25 | 3.39 ± 0.12
24 | RHSNALVDILPPDSDSS [RPT3] | 2.51 ± 0.076 | 2.65 ± 0.067 | 2.69 ± 0.062 | 2.47 ± 0.056
25 | RCMMAAQYFYSGAYSYP [DIS3] | 2.14 ± 0.12 | 2.31 ± 0.11 | 1.81 ± 0.2 | 2.12 ± 0.11
26 | SRRTVNKEMETQRIMTN [YLR018C/POM34] | 3.51 ± 0.12 | 3.15 ± 0.29 | 3.22 ± 0.26 | 3.1 ± 0.2
27 | NKTAHLSIPGKSTPEGT [SNU114] | 2.94 ± 0.065 | 3.04 ± 0.061 | 2.79 ± 0.048 | 3.01 ± 0.038

Row | Sequence | protein stability index (doa10∆) | protein stability index (pdr5∆) | protein stability index (san1∆) | protein stability index (ubr1∆)
28 | KVVEFAITHMIDALGTE [SCL1] | 2.03 ± 0.044 | 2.28 ± 0.038 | 2.27 ± 0.079 | 2.18 ± 0.023
29 | GLDQSRIPFSERKLKFS [FAS1] | 1.81 ± 0.061 | 1.29 ± 0.059 | 1.11 ± 0.085 | 1.12 ± 0.048
30 | RNNFLAENSHTQPKATS [PUP1] | 3.14 ± 0.069 | 3.1 ± 0.059 | 3.06 ± 0.044 | 3.13 ± 0.04
31 | LRDTFIELDQVLNMLYW [RPO21] | 2.19 ± 0.1 | 2.51 ± 0.058 | 2.4 ± 0.07 | 2.27 ± 0.06
32 | QQGQNMSEQQWREQLRN [ROX3] | 2.55 ± 0.071 | 2.48 ± 0.055 | 2.42 ± 0.086 | 2.23 ± 0.032
33 | VGASVVVVKNWGAETDE [RPS12] | 3.34 ± 0.12 | 3.12 ± 0.089 | 3.29 ± 0.047 | 2.97 ± 0.067
34 | LLSDVNQNQRNVNETMS [SMC3] | 3.06 ± 0.12 | 2.89 ± 0.054 | 3.04 ± 0.062 | 3.01 ± 0.082
35 | AFEAELSNIPLLLITHH [ARP9] | 1.49 ± 0.071 | 1.68 ± 0.072 | 1.64 ± 0.089 | 1.58 ± 0.066
36 | TTFRNEYGKHDFKNEES [MED8] | 3.05 ± 0.1 | 3.01 ± 0.084 | 3.14 ± 0.051 | 3.28 ± 0.096
37 | AGNLITTPEINNFIVER [SRP68] | 2.79 ± 0.067 | 3.07 ± 0.061 | 3.18 ± 0.061 | 2.82 ± 0.049
38 | KERNSLKKLKAMNDACY [BRR2] | 3.18 ± 0.086 | 3.16 ± 0.059 | 2.98 ± 0.051 | 3.05 ± 0.06
39 | SFDVAISTACPRLDDVV [SMC4] | 3.12 ± 0.083 | 3.34 ± 0.051 | 3.1 ± 0.075 | 3.11 ± 0.078
40 | FHSEISPDSTVNRSVVV [YAR002W/NUP60] | 1.75 ± 0.11 | 1.76 ± 0.052 | 1.76 ± 0.13 | 2.16 ± 0.059
41 | QRESQIGAAELNENARE [SNF12] | 3.22 ± 0.075 | 3.19 ± 0.063 | 2.93 ± 0.12 | 3.35 ± 0.044
42 | DWVRFLALALGILYMGQ [RPN1] | 1.36 ± 0.096 | 1.45 ± 0.086 | 2.08 ± 0.14 | 1.24 ± 0.18
43 | NPYNIVPQGKIVALTNA [SMC3] | 2.77 ± 0.14 | 2.78 ± 0.086 | 2.82 ± 0.12 | 3.11 ± 0.078
44 | MVPKRSTIITKAINQEL [YCS4] | 1.39 ± 0.1 | 1.88 ± 0.062 | 1.58 ± 0.09 | 2.24 ± 0.068
45 | LILAGQVKVKGQLGEMA [YCS4] | 3.49 ± 0.1 | 3.35 ± 0.097 | 3.12 ± 0.069 | 2.87 ± 0.072
46 | EDAKYVINLKQIAKFVV [RPT1] | 1.61 ± 0.12 | 2.4 ± 0.2 | 1.8 ± 0.21 | 1.96 ± 0.1
47 | SCHGHFGHLKLALPVFH [RPO31] | 1.44 ± 0.054 | 1.4 ± 0.057 | 1.23 ± 0.1 | 1.18 ± 0.035
48 | SQSLGVSNKFEKIFHYG [PUP3] | 3.47 ± 0.13 | 3.5 ± 0.17 | 2.95 ± 0.13 | 3.61 ± 0.14
49 | EPPAGVALPPGSNYNPY [CYT1] | 2.77 ± 0.12 | 3.13 ± 0.076 | 2.83 ± 0.12 | 3.15 ± 0.047
50 | SVKSARTSTRGRGRGRG [SNF2] | 3.38 ± 0.065 | 3.35 ± 0.064 | 3.19 ± 0.046 | 3.32 ± 0.041
51 | GGNSNKSPPQFFYNISS [SIN4] | 2.76 ± 0.043 | 3.04 ± 0.049 | 2.76 ± 0.037 | 2.58 ± 0.041
52 | DNLFGETESSVSNNEAN [SWI3] | 3.55 ± 0.16 | 2.92 ± 0.089 |  | 2.89 ± 0.083
53 | IVPGTYIQERNPTQRPQ [RPS10A] | 3.01 ± 0.054 | 3.08 ± 0.043 | 3.05 ± 0.037 | 3.12 ± 0.034

— the supplement of paper PMC9732359
